Experimental data published in US20230055566A1.

Molecular target: human FGFR2b (beta)-Fc (human) (UniProt P21802)
Experiment: SPR (Biacore), hFGFR2b-Fc immobilized on CM5 chip, antibody injected at 0-200 nM

- Kd: 0.75 nM
- koff: 7.77e-05 s⁻¹
- kon: 104000 M⁻¹ s⁻¹
Substance: FPA144 (antibody)
